Tests used:
[1] = test system: COS-1 cells (endogenous c-kit); test: ^125I-SCF^1-164 binding to COS-1 cells transfected with V19.8 alone
Excerpt: To test whether SCF^1-164 is the ligand for c-kit, the cDNA for the entire murine c-kit [Qiu et al., EMBO J., 7, 1003–1011 (1988)] was amplified using PCR from the SCF^1-164 responsive mast cell line MC/9 [Nabel et al., Nature, 291, 332–334 (1981)] with primers designed from the published sequence. The ligand binding and transmembrane domains of human c-kit, encoded by amino acids 1–549 [Yarden et al., EMBO J., 6, 3341–3351 (1987)], were cloned using similar techniques from the human erythroleukemia cell line, HEL [Martin and Papayannopoulou, Science, 216, 1233–1235 (1982)]. The c-kit cDNAs were inserted into the mammalian expression vector V19.8 transfected into COS-1 cells, and membrane fractions prepared for binding assays using either rat or human ^125I-SCF^1-164 according to the methods described in Sections B and C below. […] There was no detectable specific binding of ^125I human SCF^1-164 to COS-1 cells transfected with V19.8 alone. However, COS-1 cells expressing human recombinant c-kit ligand binding plus transmembrane domains (hckit-LT1) did bind ^125I-hSCF^1-164 (Table 17). The addition of a 200 fold molar excess of unlabelled human SCF^1-164 reduced binding to background levels. […]
Two days after transfection, the COS-1 cells were scraped from the dish, washed in PBS, and frozen until use. […] The pellets were clipped off and membrane associated ^125I-SCF^1-164 was quantitated.

human bone marrow = test: Human bone marrow colony assay; format: cell-based
In short: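 Ficoll-purified normal human marrow cells were cultured 14 days under low oxygen (7% O2, 10% CO2) in methylcellulose medium containing EPO (20 U/ml). Colonies counted were only those 0.2 mm or larger. Test material was recombinant human SCF (residues 1–162) from COS-1 supernatants, also combined with other factors.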

mouse bone marrow cells = test: Pre-B cell colony formation in agar cultures; format: cell-based
Excerpt: The ability of recombinant rat SCF^1-164 (rrSCF^1-164), to act synergistically with IL-7 to enhance lymphoid cell proliferation was studied in agar cultures of mouse bone marrow. In this assay, the colonies formed with rrSCF^1-164 alone contained monocytes, neutrophils, and blast-cells, while the colonies stimulated by IL-7 alone or in combination with rrSCF^1-164 contained primarily pre-B cells. Pre-B cells, characterized as B220^+, sIg^−, cμ^+, were identified by FACS analysis of pooled cells using fluorescence-labeled antibodies to the B220 antigen [Coffman, Immunol. Rev., 69, 5 (1982)] and to surface Ig (FITC-goat anti-K, Southern Biotechnology Assoc., Birmingham, Ala.); and by analysis of cytospin slides for cytoplasmic μ expression using fluorescence-labeled antibodies (TRITC-goat anti-μ, Southern Biotechnology Assoc.,). Recombinant human IL-7 (rhIL-7) was obtained from Biosource International (Westlake Village, Calif.). When rrSCF^1-164 was added in combination with the pre-B cell growth factor IL-7, a synergistic increase in colony formation was observed (Table 16), indicating a stimulatory role of rrSCF^1-164 on early B cell progenitors.

B1: rrSCF^1-164: recombinant rat SCF^1-164 from E. coli, also used ^125I-labelled (protein)
chain: QEICRNPVTDNVKDITKLVANLPNDYMITLNYVAGMDVLPSHCWLRDMVTHLSVSLTTLLDKFSNISEGLSNYSIIDKLGKIVDDLVACMEENAPKNVKESLKKPETRNFTPEEFFSIFNRSIDAFKDFMVASDTSDCVLSSTLGPEKDSRVSVTKPFMLPPVA
CPM Bound, ^125I-SCF + cold ([1]; 1.6 nM ^125I-SCF^1-164 + 320 nM unlabelled SCF^1-164, V19.8): 550 CPM | CPM Bound, ^125I-SCF ([1]; 1.6 nM ^125I-SCF^1-164, plasmid V19.8): 1,100 CPM | specific activity in proliferation of human bone marrow (human bone marrow): specific activity similar to that of human SCF^1-164 | Colony Number per 5 × 10^4 mouse bone marrow cells plated (mouse bone marrow cells; 50 ng): 4 ± 2 | Colony Number per 5 × 10^4 mouse bone marrow cells plated (mouse bone marrow cells; 100 ng): 7 ± 4 | Colony Number per 5 × 10^4 mouse bone marrow cells plated (mouse bone marrow cells; 200 ng, mean of triplicate dishes ± SD): 13 ± 2
